# Reference: the supplement of paper PMC10724198
# ± gives the standard deviation of the averaged measurements.
# Columns and labels:
# Saccharomyces cerevisiae [1] = assay: protein stability index of tFT-peptide fusion (C-terminal peptide) (PSI (0-1 scale)); higher = more stable (slower turnover); settings: genetic background: wild type; temperature: 30 C
# Saccharomyces cerevisiae [2] = assay: as above
# Procedure: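 MPS profiling in S. cerevisiae of the tFT-X12 degron library: putative degron peptides plus stable controls, 12 aa, fused to the C-terminus of a sfGFP-mCherry timer. Cells are FACS-sorted into 8 mCherry/sfGFP bins and deep-sequenced. PSI runs from 0 (unstable) to 1 (stable). Backgrounds are wild type, das1Δ and doa10Δ at 30 °C, and wild type, das1Δ, cdc34-1 and cdc53-1 at 37 °C; 2-3 technical replicates each.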
# [3] = genetic background: cdc34-1, temperature: 37 C
# [4] = genetic background: cdc53-1, temperature: 37 C
# [5] = genetic background: das1 deletion, temperature: 30 C
# [6] = genetic background: das1 deletion, temperature: 37 C
# [7] = genetic background: doa10 deletion, temperature: 30 C
# [8] = genetic background: wild type, temperature: 30 C
# [9] = genetic background: wild type, temperature: 37 C
# 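Further: PSI is a weighted mean of sequencing reads over stability bins, variants kept only with over 10 reads, mCherry proximal and sfGFP distal, peptide attached via GGGS linker.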
Sequence,protein stability index (Saccharomyces cerevisiae [1]),protein stability index (Saccharomyces cerevisiae [2]; [3]),protein stability index (Saccharomyces cerevisiae [2]; [4]),protein stability index (Saccharomyces cerevisiae [2]; [5]),protein stability index (Saccharomyces cerevisiae [2]; [6]),protein stability index (Saccharomyces cerevisiae [2]; [7]),protein stability index (Saccharomyces cerevisiae [2]; [8]),protein stability index (Saccharomyces cerevisiae [2]; [9])
SFFWAMSLLCFV,0.455 ± 0.043,0.511 ± 0.025,0.559 ± 0.012,0.443 ± 0.025,0.549 ± 0.018,0.402 ± 0.022,0.414 ± 0.024,0.498 ± 0.00077
SFGLICFLILCG,0.2964 ± 0.00086,0.218 ± 0.0065,0.218 ± 0.052,0.206 ± 0.03,0.372 ± 0.038,0.173 ± 0.023,0.205 ± 0.014,0.301 ± 0.0073
SFIVGYRWNNRN,0.443 ± 0.047,0.672 ± 0.018,0.738 ± 0.035,0.647 ± 0.015,0.7542 ± 0.0063,0.337 ± 0.033,0.378 ± 0.0046,0.5776 ± 0.0018
SFVVVFTFFFGC,0.312 ± 0.015,0.272 ± 0.018,0.381 ± 0.031,0.239 ± 0.032,0.408 ± 0.026,0.221 ± 0.011,0.258 ± 0.036,0.377 ± 0.02
SGFLRFRGLVCY,0.359 ± 0.019,0.396 ± 0.016,0.445 ± 0.021,0.288 ± 0.043,0.503 ± 0.0067,0.233 ± 0.0028,0.278 ± 0.038,0.464 ± 0.008
SGFWVSVDVFFV,0.2434 ± 0.0016,0.0673 ± 0.026,0.171 ± 0.022,0.155 ± 0.03,0.32 ± 0.015,0.122 ± 0.012,0.136 ± 0.026,0.29 ± 0.0036
SGLPLVILFLCL,0.476 ± 0.0088,0.529 ± 0.0086,0.635 ± 0.04,0.435 ± 0.028,0.625 ± 0.022,0.441 ± 0.026,0.436 ± 0.019,0.576 ± 0.038
SGRATSSRTSEP,0.78 ± 0.024,0.67 ± 0.035,0.72963 ± 0.00027,0.661 ± 0.01,0.713 ± 0.0042,0.662 ± 0.03,0.6625 ± 0.0048,0.7036 ± 0.0011
SGWGCRMVVCAG,0.245 ± 0.0031,0.154 ± 0.026,0.192 ± 0.028,0.186 ± 0.027,0.299 ± 0.011,0.152 ± 0.0088,0.197 ± 0.029,0.265 ± 0.0084
SHPAPPSPPPSP,0.413 ± 0.0094,0.618 ± 0.078,0.676 ± 0.0076,0.384 ± 0.025,0.537 ± 0.014,0.363 ± 0.0086,0.391 ± 0.025,0.534 ± 0.0059
SILFSYFCFFLL,0.356 ± 0.01,0.523 ± 0.027,0.545 ± 0.019,0.441 ± 0.031,0.586 ± 0.014,0.274 ± 0.0065,0.273 ± 0.028,0.443 ± 0.0077
SLCPFLCILCFG,0.355 ± 0.009,0.327 ± 0.0041,0.321 ± 0.036,0.28 ± 0.023,0.402 ± 0.0015,0.245 ± 0.0064,0.259 ± 0.021,0.347 ± 0.0085
SLCVVIFFSSIT,0.356 ± 0.02,0.301 ± 0.011,0.437 ± 0.037,0.274 ± 0.031,0.468 ± 0.019,0.2524 ± 0.0025,0.266 ± 0.041,0.413 ± 0.0017
SLPVSPLVRLLA,0.235 ± 0.021,0.563 ± 0.017,0.599 ± 0.0093,0.486 ± 0.026,0.611 ± 0.0096,0.127 ± 0.015,0.138 ± 0.02,0.2102 ± 0.0012
SLRICACMTVSW,0.353 ± 0.005,0.3 ± 0.0079,0.373 ± 0.013,0.404 ± 0.086,0.335 ± 0.0069,0.366 ± 0.0045,0.353 ± 0.012,0.29 ± 0.013
SLSALPRPPRLL,0.614 ± 0.26,0.669 ± 0.0078,0.713 ± 0.022,0.673 ± 0.021,0.7323 ± 0.0002,0.698 ± 0.027,0.677 ± 0.023,0.694 ± 0.0087
SPPHSPSALPPP,0.587 ± 0.15,0.674 ± 0.025,0.726 ± 0.0086,0.656 ± 0.023,0.732 ± 0.019,0.685 ± 0.022,0.669 ± 0.0081,0.701 ± 0.0078
SPWSIHLILLQV,0.318 ± 0.025,0.209 ± 0.016,0.312 ± 0.0012,0.265 ± 0.033,0.438 ± 0.018,0.1894 ± 0.00096,0.203 ± 0.029,0.36 ± 0.034
SQCVVYLSVRFS,0.447 ± 0.024,0.358 ± 0.067,0.5 ± 0.017,0.34 ± 0.028,0.47856 ± 0.00019,0.326 ± 0.014,0.353 ± 0.011,0.4565 ± 0.0028
SQKKKIKKYKET,0.217 ± 0.033,0.574 ± 0.032,0.665 ± 0.14,0.644 ± 0.032,0.706 ± 0.018,0.172 ± 0.0036,0.147 ± 0.041,0.208 ± 0.049

Sequence,protein stability index (Saccharomyces cerevisiae [1]),protein stability index (Saccharomyces cerevisiae [2]; [3]),protein stability index (Saccharomyces cerevisiae [2]; [4]),protein stability index (Saccharomyces cerevisiae [2]; [5]),protein stability index (Saccharomyces cerevisiae [2]; [6]),protein stability index (Saccharomyces cerevisiae [2]; [7]),protein stability index (Saccharomyces cerevisiae [2]; [8]),protein stability index (Saccharomyces cerevisiae [2]; [9])
SREQANTVYRLI,0.376 ± 0.008,0.689 ± 0.011,0.7132 ± 0.0048,0.631 ± 0.018,0.7187 ± 0.0036,0.254 ± 0.0066,0.3 ± 0.0074,0.553 ± 0.0053
SRFFSCCVFPSF,0.766 ± 0.017,0.704 ± 0.02,0.7941 ± 0.0034,0.67 ± 0.037,0.781 ± 0.016,0.6764 ± 0.0041,0.654 ± 0.0089,0.737 ± 0.023
SRKRIVALMLSG,0.292 ± 0.013,0.628 ± 0.012,0.678 ± 0.061,0.615 ± 0.029,0.686 ± 0.032,0.153 ± 0.013,0.18 ± 0.02,0.273 ± 0.0082
SRNSSRYLLLVS,0.316 ± 0.013,0.539 ± 0.05,0.58 ± 0.076,0.52 ± 0.046,0.649 ± 0.0096,0.211 ± 0.032,0.251 ± 0.027,0.405 ± 0.011
SRVGAGVVRGVG,0.488 ± 0.038,0.481 ± 0.031,0.534 ± 0.015,0.498 ± 0.007,0.5403 ± 0.0051,0.512 ± 0.011,0.493 ± 0.012,0.5391 ± 0.0031
SRVHHLWAILVP,0.345 ± 0.016,0.231 ± 0.015,0.265 ± 0.0052,0.238 ± 0.034,0.3712 ± 0.0019,0.18 ± 0.0099,0.228 ± 0.026,0.339 ± 0.0039
SSGAVGLVIVVC,0.276 ± 0.014,0.113 ± 0.028,0.185 ± 0.01,0.214 ± 0.049,0.309 ± 0.0093,0.155 ± 0.018,0.205 ± 0.023,0.247 ± 0.0078
SSGRLRFISRIH,0.454 ± 0.027,0.654 ± 0.033,0.7064 ± 0.0053,0.656 ± 0.048,0.7487 ± 0.0033,0.316 ± 0.019,0.347 ± 0.018,0.5972 ± 0.0037
SSVFLGWLIVCY,0.245 ± 0.0037,0.0861 ± 0.0015,0.115 ± 0.033,0.173 ± 0.043,0.2851 ± 0.0027,0.154 ± 0.0099,0.168 ± 0.021,0.255 ± 0.027
SSVGLFVLLCLV,0.302 ± 0.02,0.31 ± 0.028,0.333 ± 0.017,0.271 ± 0.039,0.503 ± 0.07,0.2 ± 0.0056,0.205 ± 0.015,0.323 ± 0.0056
STVGAWGRVGEG,0.459 ± 0.025,0.435 ± 0.018,0.462 ± 0.038,0.418 ± 0.035,0.484 ± 0.0078,0.45024 ± 0.00039,0.438 ± 0.016,0.472 ± 0.0089
SVFFRPVLICCA,0.101 ± 0.037,0.0234 ± 0.00059,0.0313 ± 0.0091,0.0774 ± 0.01,0.0628 ± 0.0047,0.0558 ± 0.0082,0.0558 ± 0.013,0.048 ± 0.0039
SVLAIWLTVTLK,0.145 ± 0.0018,0.0666 ± 0.029,0.0696 ± 0.029,0.146 ± 0.016,0.197 ± 0.0027,0.0915 ± 0.023,0.0938 ± 0.034,0.139 ± 0.0076
SVLVSVVLFVRS,0.279 ± 0.0029,0.114 ± 0.055,0.237 ± 0.021,0.176 ± 0.019,0.33663 ± 7.1e-05,0.126 ± 0.032,0.168 ± 0.033,0.289 ± 0.026
SVSMYPKPHLIC,0.243 ± 0.0026,0.571 ± 0.057,0.682 ± 0.023,0.596 ± 0.034,0.698 ± 0.034,0.119 ± 0.015,0.13 ± 0.017,0.181 ± 0.015
SVSRIFRTFSCY,0.321 ± 0.07,0.627 ± 0.023,0.759 ± 0.054,0.668 ± 0.013,0.681 ± 0.047,0.216 ± 0.035,0.224 ± 0.0094,0.396 ± 0.041
SVVYVIYCGGIL,0.427 ± 0.036,0.446 ± 0.0082,0.481 ± 0.075,0.31 ± 0.036,0.555 ± 0.019,0.29 ± 0.0048,0.336 ± 0.013,0.503 ± 0.036
SWFRRPFPPRLL,0.158 ± 0.094,,0.6 ± 0.025,0.606 ± 0.052,0.67 ± 0.063,0.048 ± 0.068,,0.0127 ± 0.018
SWLAQCVVISLL,0.459 ± 0.011,0.634 ± 0.015,0.654 ± 0.014,0.507 ± 0.029,0.662 ± 0.016,0.352 ± 0.0055,0.364 ± 0.019,0.56 ± 0.061
